From patent US20190169635

System: alpha-1 antitrypsin (AAT) in the serum of wild-type C57BL/6 mice

neutrophil elastase
relative neutrophil elastase activity (colorimetric kinetics of substrate degradation) after incubation with serum: serum from wild-type male and female C57BL/6 mice exhibited a high capacity to inhibit neutrophil elastase, serum from the three founders showed a reduced capacity to do so
